These results are taken from US20230227832, “ANTICANCER APTAMERS AND USES THEREOF” (CONSIGLIO NAZIONALE DELLE RICERCHE, published 2023).

For data set [1], the target named is Serum albumin (HSA) (Homo sapiens, UniProt P02768 P02768:25-609). Nature of the data set: ELONA; plate coated with 30 nM HSA; figure legend says bovine serum albumin. The note with it: tags: Sigma Aldrich; label: biotin. How it is done:
For ELONA, wells of a 96-well High Binding microplate (Nunc MaxiSorp) were left uncoated or coated with exosomes (4 μg) o.n. All the subsequent steps were performed at room temperature. Following incubation, the plate was blocked with 300 μl 3% BSA (AppliChem) in PBS for 2 hours and incubated with 100 μL biotinylated aptamers (Tebu-bio), dissolved in PBS for 2 hours. Then the plate was washed three times with 300 μl PBS and streptavidin-HPR dissolved in 100 μl PBS (Sigma Aldrich) was added with dilution 1:10000. After 1 hour of incubation, the plate was washed three times before the addition of the TMB developing solution. The reaction was stopped with 0.16 M sulfuric acid and signal strength was analyzed by measuring absorbance at 450 nm with a microplate reader (Thermo Scientific).
MDA-MB-231-derived exosomes and increasing concentrations of aptamer (ex-50.T or control) were used to calculate the binding affinity. The Kd was determined by means of GraphPad Prism. To verify the binding on human serum alumina (HSA), the plate coating was performed at 30 nM HSA (Sigma Aldrich).

Data set [2] has as its target T1, Gremlin-1 (GREM1), recombinant human (Homo sapiens, UniProt O60565 O60565:25-184).
T1 sequence: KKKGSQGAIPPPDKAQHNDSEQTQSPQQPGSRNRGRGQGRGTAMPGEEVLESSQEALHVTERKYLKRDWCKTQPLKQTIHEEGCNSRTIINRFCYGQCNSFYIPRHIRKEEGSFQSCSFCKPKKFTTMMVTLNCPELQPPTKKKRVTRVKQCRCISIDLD
Nature of the data set: ELONA; room temperature, PBS; biotinylated aptamer, streptavidin-HRP. Particulars: label: biotin.

Sequence of Serum albumin (HSA) (P02768 25-609, one chain of several): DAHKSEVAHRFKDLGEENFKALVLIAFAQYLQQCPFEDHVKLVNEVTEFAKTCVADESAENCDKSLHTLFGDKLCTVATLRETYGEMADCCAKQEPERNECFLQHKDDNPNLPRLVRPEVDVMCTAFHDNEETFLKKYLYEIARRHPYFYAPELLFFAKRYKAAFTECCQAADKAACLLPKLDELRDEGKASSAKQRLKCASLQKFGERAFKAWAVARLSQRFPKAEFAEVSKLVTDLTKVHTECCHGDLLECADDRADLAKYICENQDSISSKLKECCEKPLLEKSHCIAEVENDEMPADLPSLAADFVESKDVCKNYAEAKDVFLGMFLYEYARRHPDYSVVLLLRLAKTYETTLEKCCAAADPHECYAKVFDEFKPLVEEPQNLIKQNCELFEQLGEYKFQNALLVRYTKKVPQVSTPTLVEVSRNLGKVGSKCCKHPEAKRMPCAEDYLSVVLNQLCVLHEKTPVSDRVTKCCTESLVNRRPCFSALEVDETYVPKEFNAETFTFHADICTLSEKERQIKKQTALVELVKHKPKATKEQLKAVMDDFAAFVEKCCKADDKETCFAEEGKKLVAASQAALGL

B1: ex-50.T (ssRNA)
RNA: UGUGGCAGUUAAGAAUAGAUCUUCGCUGCGAUU
modifications: 2'-F pyrimidines (2'-F-C, 2'-F-U; per library chemistry)
For B1, the binding result in data set [1] is listed as “no binding”. Moreover, in data set [2], the dissociation constant (Kd) (as a rule, a measure of binding affinity in units of concentration) came out at 37.7 nM.
